According to article PMC9084902, “Low-Molecular Weight Protamine Overcomes Chondroitin Sulfate Inhibition of Neural Regeneration” (Frontiers in Cell and Developmental Biology, 2022):
Ends that are not written are not given here.

Tests used:
cervical spinal cord = assay: distribution of fluorescent LMWP to spinal cord after subcutaneous administration; type: in vivo, mouse; settings: 2 h, confocal
Procedure: The TAMRA-labelled LMWP was obtained from commercial provider Caslo ApS (DK-2800, Kongens Lyngby, Denmark). Sixteen micrograms of TAMRA-LMWPor unconjugated TAMRA (in 200 ul of 0.9% NaCl) was injected subcutaneously to upper back area to healthy adult mice (n = 2–3 animals/group). At the end of the experiment (2 h after injection), the animals were perfused with PBS and then with 4% paraformaldehyde (PFA) in PBS. The spinal cord was dissected and further fixed in PFA overnight. One hundred µm-thick longitudinal sections of the cervical spinal cord were cut with vibratome and imaged with Zeiss LSM880 confocal, 20x objective.

[1] = test system: PTPRZ (protein tyrosine phosphatase receptor type Z); settings: ref Kuboyama et al., 2017; cited from earlier work
From the text: In the case of HB-GAM we have identified glypican-1 as a neuron surface receptor using unbiased mass spectrometry search of neuron binding sites for the substrate-attached HB-GAM ([Paveliev et al., 2016]). […] Interaction of glypican-1 with LMWP also appears likely since LMWP binds to heparin/heparan sulfate chains. Another possible cell surface receptor of LMWP is the transmembrane receptor PTPRZ (protein tyrosine ph ...

brain cortex tissue = assay: in vivo TUNEL apoptosis assay after cortical injection; settings: 1.5 μl cortical injection, 0.1 or 1 mg/ml, 3 days
Procedure: For TUNEL apoptosis assay, 1.5 μl of protamine (0.1 mg/ml or 1 mg/ml) or LMWP (0.1 mg/ml or 1 mg/ml) was bilaterally injected to the adult C57Bl6 mouse (n = 10 total) into motor (ML: 1.5; AP: 2) and somatosensory (ML: 1.5; AP: −1.8) cerebral cortex 500–700 micrometers below the brain surface (4 injection sites per concentration of injected protamine and 6 injections per concentration of injected LMWP). After 3 days the animals were anesthetized with pentobarbital sodium and perfused with PBS and then 4%PFA. After paraffine embedding the brains were cut into 7 µm coronal sections. Staining was performed according to the protocol recommended by the commercial TUNEL assay kit (Dead End Fluorometric TUNEL System, Promega). Sections treated with DNase I were used as positive controls. Vectoshield medium with DAPI (Vector Laboratories) was used to visualize nuclei. Images were collected with Axio Imager M.1 fluorescent microscope (Zeiss), AxioCam HR3 digital camera and x10 0.45 NA objective (Carl Zeiss Microscopy) and analyzed with automatic cell counting using FIJI software (Image J, open-source). The fractions of TUNEL positive cells were calculated and averaged over 5 sections per mouse per injection place.

[2] = attenuated total reflectance Fourier transform infrared spectroscopy; ref Umerska et al., 2015; cited from earlier work
From the text: Chondroitin sulfates (CS) bare multiple negative charges due to sulfate and carboxyl groups while protamine is a polycation at physiological pH values. […] As an FDA-approved drug for human use as anti-heparin, protamine might in addition have potential to overcome the regeneration inhibiting effe ...

hippocampal neurons [3] = assay: neurite outgrowth on aggrecan substrate, hippocampal neurons; type: cell-based, Wistar rat; settings: hippocampal neurons (E17 rat), 2 days on aggrecan; 10 μg/ml, precoated with aggrecan or soluble in medium; about 70 neurons/replicate, normalized to control; n = 3; Figure 2L
Procedure: (§1) The cortex or hippocampus were obtained from 17 days-old Wistar rat embryos and transferred to ice-cold preparation solution. Neurons were further isolated exactly as described earlier in Sahu’s publication ([Sahu et al., 2019]). Primary rat cortical or hippocampal neurons (E17 Wistar rats) were cultured in 96-well plates at the density of 20000 cells/well in Neurobasal medium supplemented with B27 serum substitute, penicillin, streptomycin and L-glutamate for 2 days in vitro (DIV). The plates were precoated with aggrecan (5 ug/ml, 150 µl/well). Protamine or protamine peptides were added to the culture medium at different concentrations. To analyze the effect of protamine or its fragment on neurite outgrowth, the plates were coated with 10 μg/ml of protamine or LMWP. For the experiment with chondroitinase, the aggrecan-coated plates were treated with chondroitinase ABC (Amsbio AMS. E1028, lot CF0029) for 4 h followed by 2 times washing with PBS before cell plating, and the cell culture imaging was carried out after 3 DIV incubation with 4 uM LMWP added to the medium. Neurite outgrowth was imaged with phase contrast microscopy (Olympus IX70 microscope and Retiga 2000R digital camera) using both x10 and x20 objectives. Processes of neurons over the diameter of the neuronal soma were interpreted as neurites. Neurite length was measured with ImageJ software and averaged from 2 to 3 independent experiments with 1–2 technical replicas in each independent experiment.

[4] = test system: oligodendrocyte differentiation; settings: ref Kuboyama et al., 2017; cited from earlier work
From the text: The CS chains even enhance the neurite outgrowth-promoting effect of HB-GAM, and we have ended up in a model according to which the CS chains of the CSPGs display a positive role by concentrating HB-GAM on the matrix and presenting it to neuron surface receptors. According to our model, two polycationic regions separated by a linker are essential to reverse the CS inhibition of neurite outgrowth ([Paveliev et al., 2016]; [Rauvala et al., 2017]). To test our hypothesis we decided to search for peptide structures that are similar to HB-GAM and display similar binding properties. Protamine displa ...

hippocampal neurons [5] = assay: neurite outgrowth on precoated plastic without aggrecan, hippocampal neurons; type: cell-based, Wistar rat; settings: precoated 10 μg/ml on plastic, no aggrecan, 2 days; about 70 neurons/replicate; p < 0.0001, n = 7
Procedure: as §1, with “Processes of neurons over the diameter of the neuronal soma were interpreted as neurites.” left out

[6] = ref Kaneda et al., 2005; Bromfield et al., 2013; cited from earlier work
From the text: Protamine is a small 33 amino acid long protein that takes part in DNA packing during spermatogenesis ([Kasinsky et al., 2011]). Over 60% of the salmon protamine sequence is comprised of arginines so that it interacts strongly with negatively charged DNA phosphates in vivo and potentially with any other negatively charged molecules. […] Protamine sulfate is therefore widely used as a drug in cardiopulmonary bypass surgery to stop the effect of heparin ([Kaneda et al., 2005]; [Bromfield et al. ... || The CS chains even enhance the neurite outgrowth-promoting effect of HB-GAM, and we have ended up in a model according to which the CS chains of the CSPGs display a positive role by concentrating HB-GAM on the matrix and presenting it to neuron surface receptors. According to our model, two polycationic regions separated by a linker are essential to reverse the CS inhibition of neurite outgrowth ([Paveliev et al., 2016]; [Rauvala et al., 2017]). To test our hypothesis we decided to search for peptide structures that are similar to HB-GAM and display similar binding properties. Protamine displa ...

hippocampal neurons [7] = assay: cell toxicity seen in neuronal morphology / neuronal cells in vitro; type: cell-based, Wistar rat
Procedure: as §1

[8] = solid phase binding of mutated PTPσ ectodomain to aggrecan; settings: 80 nM, 10 μg/ml aggrecan coating, overnight 4°C, HRP anti-Fc/OPD 492 nm
From the text: The N-terminal extracellular part of PTPσ (protein tyrosine phosphatase sigma; PTPRS) that contains the three Ig domains (amino acids 1-321) and mediates CSPG binding ([Shen et al., 2009]) was cloned using the PTPσ cDNA kindly provided by Dr. John Flanagan (Harvard University). The PTPσ mutant lacking the CS binding site in the Ig1 domain was produced as described ([Shen et al., 2009]). The recombinants were produced as Fc-tagged proteins in 293T HEK cells and purified on protein A Sepharose.
The competition assay for LMWP in binding of PTPσ to aggrecan was done in a similar way as earlier ([Paveliev et al., 2016]). Briefly, after overnight coating with 10 μg/ml aggrecan (150 ul/well) at 4°C 96-well tissue culture plates (Nunc) were washed two times with 0.05% Tween-20 in PBS and were blocked for 1 h at room temperature with 1%BSA and 0.05% Tween-20 in PBS. The recombinant wild type PTPσ ectodomain or the mutated ectodomain lacking CS binding (80 nM) were mixed with different concentrations of LMWP in 1% BSA and 0.05% Tween-20 in PBS, and were incubated in the plates overnight at 4°C. After washing with 0.05% Tween20 (3 times, room temperature), the wells were incubated for 1 h (room temperature) with HRP conjugated goat anti-human FC part of IgG (1:5000, in 1% BSA and 0.05% Tween20 PBS) to detect the bound PTPσ. […]

Molecule: TAMRA-LMWP: fluorescent TAMRA-labelled LMWP (Caslo ApS) (VSRRRRRRGGRRRR; also: TAMRA label, site not given here)
- fluorescent signal in spinal cord parenchyma (cervical spinal cord; 16 µg s.c. in 200 µl 0.9% NaCl, compared to TAMRA or noninjected animals, n = 2–3): clear fluorescent signal in the spinal cord parenchyma
- parenchymal accumulation in spinal cord (cervical spinal cord; 16 µg s.c., cervical region): Parenchymal accumulation
- perivascular accumulation in spinal cord (cervical spinal cord; 16 µg s.c., cervical region): Perivascular accumulation

Molecule: protamine
- binding to PTPRZ [1]: known to bind protamine
- apoptotic cells in brain cortex (TUNEL staining) (brain cortex tissue): high amount of apoptotic cells in brain cortex tissue
- polyion complexation with CS [2]: Polyion complexation of CS with protamine was demonstrated
- reversal of the inhibitory effect of aggrecan on neurite outgrowth (comparison among fragments) (hippocampal neurons [3]): lower efficacy in the neurite outgrowth assay
- effect on CSPG-mediated inhibition of oligodendrocyte differentiation [4]: neutralizes the CSPG-mediated inhibition of oligodendrocyte differentiation
- total neurite length versus uncoated control (hippocampal neurons [5]): increased the total neurite length as compared to the parallel control cultures
- affinity for heparin [6]: binds the glycosaminoglycan heparin with high affinity
- signs of cell toxicity in neuronal morphology (hippocampal neurons [7]; hippocampal neurons, 2 days on aggrecan, 10 μg/ml, black arrows point to dead cells, Figure 2E,G): Signs of cell toxicity were observed in neuronal morphology
- toxicity for neuronal cells (summary) (hippocampal neurons [7]; neuronal systems, Figures 2, 4): toxic for neuronal cells

B1: recombinant ectodomain of PTPσ mutated in a critical lysine residue: PTPσ mutant lacking the CS binding site in the Ig1 domain, Fc-tagged, produced in 293T HEK cells (protein, UniProt Q13332 30-1282, looked up)
extracellular domain: EEPPRFIKEPKDQIGVSGGVASFVCQATGDPKPRVTWNKKGKKVNSQRFETIEFDESAGAVLRIQPLRTPRDENVYECVAQNSVGEITVHAKLTVLREDQLPSGFPNIDMGPQLKVVERTRTATMLCAASGNPDPEITWFKDFLPVDPSASNGRIKQLRSETFESTPIRGALQIESSEETDQGKYECVATNSAGVRYSSPANLYVRELREVRRVAPRFSILPMSHEIMPGGNVNITCVAVGSPMPYVKWMQGAEDLTPEDDMPVGRNVLELTDVKDSANYTCVAMSSLGVIEAVAQITVKSLPKAPGTPMVTENTATSITITWDSGNPDPVSYYVIEYKSKSQDGPYQIKEDITTTRYSIGGLSPNSEYEIWVSAVNSIGQGPPSESVVTRTGEQAPASAPRNVQARMLSATTMIVQWEEPVEPNGLIRGYRVYYTMEPEHPVGNWQKHNVDDSLLTTVGSLLEDETYTVRVLAFTSVGDGPLSDPIQVKTQQGVPGQPMNLRAEARSETSITLSWSPPRQESIIKYELLFREGDHGREVGRTFDPTTSYVVEDLKPNTEYAFRLAARSPQGLGAFTPVVRQRTLQSKPSAPPQDVKCVSVRSTAILVSWRPPPPETHNGALVGYSVRYRPLGSEDPEPKEVNGIPPTTTQILLEALEKWTQYRITTVAHTEVGPGPESSPVVVRTDEDVPSAPPRKVEAEALNATAIRVLWRSPAPGRQHGQIRGYQVHYVRMEGAEARGPPRIKDVMLADAQWETDDTAEYEMVITNLQPETAYSITVAAYTMKGDGARSKPKVVVTKGAVLGRPTLSVQQTPEGSLLARWEPPAGTAEDQVLGYRLQFGREDSTPLATLEFPPSEDRYTASGVHKGATYVFRLAARSRGGLGEEAAEVLSIPEDTPRGHPQILEAAGNASAGTVLLRWLPPVPAERNGAIVKYTVAVREAGALGPARETELPAAAEPGAENALTLQGLKPDTAYDLQVRAHTRRGPGPFSPPVRYRTFLRDQVSPKNFKVKMIMKTSVLLSWEFPDNYNSPTPYKIQYNGLTLDVDGRTTKKLITHLKPHTFYNFVLTNRGSSLGGLQQTVTAWTAFNLLNGKPSVAPKPDADGFIMVYLPDGQSPVPVQSYFIVMVPLRKSRGGQFLTPLGSPEDMDLEELIQDISRLQRRSLRHSRQLEVPRPYIAARFSVLPPTFHPGDQKQYGGFDNRGLEPGHRYVLFVLAVLQKSEPTFAASPFSDPFQLDNPDPQPIVDGEEG
modifications: extracellular domain lysine mutation in Ig1 (position not given); Fc tag
- binding to CS chains of aggrecan [8]: lacks the ability to bind to CS chains of the aggrecan substrate
